T1: HPV16 VLPs (human papillomavirus type 16, UniProt P03101 1-505)
T1 construct: Specificity control; also called human papillomavirus VLPs
T1 sequence: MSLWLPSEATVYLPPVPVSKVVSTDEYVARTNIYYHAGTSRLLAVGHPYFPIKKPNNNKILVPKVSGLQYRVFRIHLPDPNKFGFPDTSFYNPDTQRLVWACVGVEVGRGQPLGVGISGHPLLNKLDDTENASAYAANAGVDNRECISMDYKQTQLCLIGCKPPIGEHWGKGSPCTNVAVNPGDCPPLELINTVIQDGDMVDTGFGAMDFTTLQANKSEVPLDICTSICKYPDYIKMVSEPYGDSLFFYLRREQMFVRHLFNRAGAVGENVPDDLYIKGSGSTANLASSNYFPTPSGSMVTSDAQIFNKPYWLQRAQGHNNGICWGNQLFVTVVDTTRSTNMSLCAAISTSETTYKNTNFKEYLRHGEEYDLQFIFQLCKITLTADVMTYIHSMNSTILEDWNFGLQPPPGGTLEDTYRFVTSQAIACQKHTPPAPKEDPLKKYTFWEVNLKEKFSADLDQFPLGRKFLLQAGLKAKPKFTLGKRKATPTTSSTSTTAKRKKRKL


Tests used:
HPV16 VLPs [1] = target: T1, HPV16 VLPs; assay: ELISA, intact VLPs coated, hybridoma supernatant
HPV16 VLPs [2] = target: T1, HPV16 VLPs; assay: ELISA, VLPs coated

Binder | ELISA absorbance (405 nm) (HPV16 VLPs [1]) | binding result (HPV16 VLPs [2])
MAb #61 (antibody, V domains shown, Murine hybridoma antibody, supernatant; also called antibody 61) VH: QVQLQQSGAELARPGASVKMSCKASGYTFTSYTMHWVKQRPGQGLEWIGYINPSSGYTNYNQKFKDKATLTADKSSSTAYMQLSSLTSEDSAVYYCARPDGYYAWFAYWGQGTLVTVSA VL: DIQMTQSSSSFSVSLGDRVTITCKASEDIYNRLAWYQQKPGNAPRLLISGATSLETGVPSRFSGSGSGKDYTLSITSLQTEDVATYYCQQYWSTPTFGGGTKLEIK | 0.061 | no binding
MAb #19B (antibody, V domains shown, Murine hybridoma antibody, supernatant; also called antibody 19) VH: QVQLQQSGAELARPGASVKMSCKASGYTFTSYTMYWVKQRPGQGLEWIGYVNPSSGYTNYNQKFKDKATLTADKSSSTAYMQLSSLTSEDSAVYYCARHGNYRYDGYYGMDCWGQGTSVTVSS VL: DIQMTQSSSSFSVSLGDRVTITCKASEDIYNRLAWYQQKPGNAPRLLISGATSLETGVPSRFSGSGSGKDYTLSITSLQTEDVATYYCQQYWSTPYTFGGGTKLEIK | 0.015 | no binding
